Assay: yeast display, Sf9 membrane polyspecificity reagent, FACS + sequencing; frameworks hold sequencing errors
Procedure, shortened: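 A nanobody's polyreactivity label depends on the gate it was sorted from. Yeast display cells were stained with 10% biotinylated, detergent-solubilized Sf9 membrane reagent for 1 hour at 4 °C, enriched on streptavidin microbeads and sorted by FACS. The low and high (top ~1%) gates were set on anti-HA fluorescence for expression and streptavidin fluorescence for reagent binding.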

Which “polyreactivity (PSR sort gate)” value does the source give for “QVQLVESGGGLVQAGGSLRLSCAASGSTFESYAMGWYRQAPGKERELVAAISWRVGSTYYADSVKGRFTISRDNAKNTVYLQMNSLKPEDTAVYYCASKGWYSHYGGYDYWGQGTQVTVSS” here?
Its value is “low polyreactivity”.

For “QVQLVESGGGLVQAGGSLRLSCAASGSTFEYNAMGWYRQAPGKERELVASSTNYADSVKGRFTISRDNAKNTVYLQMNSLKPVDTAVYYCAREQGVNRNHDYWGQGTQLTVSS”, which “polyreactivity (PSR sort gate)” value is on record?
Its value is “low polyreactivity”.

With “QVQLVESGGGLVQAGGSLRLSCAASGSTFEYNVMGWYRQAPGKERELVASITSDGNTNYSDSVKGRFTISRDNAKNTVYLQMNSLKPEDTAVYYCNFYTWHWTFGMDYWGQGTQVTVSS” as the sequence, how does the “polyreactivity (PSR sort gate)” value read?
Its value is “low polyreactivity”.

For “QVQLVESGGGLVQAGGSLRLSCAASGSTFEYYAMGWDRQAPGKERELVAGISTGGSSNYADSVKGRFTISRDNAKNTVYLQMNSLKPEDTAVYYCNRDWALYVFGSHYHAYYSWGQGTQVTVSS”, which “polyreactivity (PSR sort gate)” value is on record?
Its value is “low polyreactivity”.

With “QVQLVESGGGLVQAGGSLRLSCAASGSTFEYYAMGWYRQAPGKEREFVAAITLSGGRTYYADSVKGRFTISRDNAKNTVYLQMNSLKPEDTAVYYCNVVVTWWLPSEYDYWGQGTQVTVSS” as the sequence, how does the “polyreactivity (PSR sort gate)” value read?
The value was “high polyreactivity”.

With “QVQLVESGGGLVQAGGSLRLSCAASGSTFEYYAMGWYRQAPGKERELVAAISRGGSTYYADSVKGRFTISRDNAKNTVYLQMNSLKPEDTAVYYCAAAPDYRAEYDYWGQGTQVTVSS” as the sequence, how does the “polyreactivity (PSR sort gate)” value read?
Its value is “low polyreactivity”.

With “QVQLVESGGGLVQAGGSLRLSCAASGSTFFAYAMGWYRQAPGKERELVAAITGRGSTYYADSVKGRFSISRDNAKNTVYLQMNSLKPEDTAVYYCAAQRSRRYYRLDYWGQGTQVTVSS” as the sequence, how does the “polyreactivity (PSR sort gate)” value read?
The value was “high polyreactivity”.

For “QVQLVESGGGLVQAGGSLRLSCAASGSTFFDNAMGWYRQAPGKERELVAAITWNGGRTYYADSVKGRFTISRDNAKNTVYLQMNSLKPEDTAVYYCAKVPLYGRVIYRQPDVYSWGQGTQVTVSS”, which “polyreactivity (PSR sort gate)” value is on record?
Its value is “high polyreactivity”.

For “QVQLVESGGGLVQAGGSLRLSCAASGSTFFFNAMGWYRQAPGKERELVASITDTSGRTYYADSVKGRFTISRDNAKNTVYLHMNSLKPEDTAVYYCDKDFDQGGREMDYWGQGTQVTVSS”, which “polyreactivity (PSR sort gate)” value is on record?
The value was “low polyreactivity”.

For “QVQLVESGGGLVQAGGSLRLSCAASGSTFFGYDMGWYRQAPGKERELVASINSGGSTYFADSEKGRFTISRDNPKNTVYLQMNSLKPEDTAVYYCAARPSYLYPYDRTGEYDYWGQGTQVTVSS”, which “polyreactivity (PSR sort gate)” value is on record?
Its value is “high polyreactivity”.

With “QVQLVESGGGLVQAGGSLRLSCAASGSTFFIYAMGWYRQAPGKERELVAAISKSGGTTYYADSVKGRFTISRDNAKNTVYLQMNSLKPEDTAVYYCAAYYTKGVARRQFYYWGQGTQVTVSS” as the sequence, how does the “polyreactivity (PSR sort gate)” value read?
Its value is “high polyreactivity”.

Which “polyreactivity (PSR sort gate)” value does the source give for “QVQLVESGGGLVQAGGSLRLSCAASGSTFFIYAMGWYRQAPGKERELVATITKRGGRTYYADSVKGRFTISRDNAKNTVYLQMNSLKPEDTAVYYCAKDLWAVYLPGYDYWGQGTQVTVSS” here?
Its value is “low polyreactivity”.

For “QVQLVESGGGLVQAGGSLRLSCAASGSTFFKYAMGWYRPAPRKERELVAAISYSGGSTYYADSVKGRFTISRDNAKNTVYLQMNSLKPEDTAVYYCAARVQNRYRPYYYWGQGTQVTVSS”, which “polyreactivity (PSR sort gate)” value is on record?
Its value is “high polyreactivity”.

Which “polyreactivity (PSR sort gate)” value does the source give for “QVQLVESGGGLVQAGGSLRLSCAASGSTFFKYAMGWYRQAPGKERELVAGITSDGSTNYADSVKGRFTISRDNAKNTVYLQMNSLKPEDTAVYYCAADGSKWGVGTYDYWGQGTQVTVSS” here?
Its value is “low polyreactivity”.

With “QVQLVESGGGLVQAGGSLRLSCAASGSTFFLYAMGWYRQAPGKERELVAAITYTDGDTYYADSVKGRFTISRDNAKNTVYLQMNSLKPEDTAVFYCNAGGDEPVYGSGYDYWGQGTQVTVSS” as the sequence, how does the “polyreactivity (PSR sort gate)” value read?
The value was “low polyreactivity”.

Which “polyreactivity (PSR sort gate)” value does the source give for “QVQLVESGGGLVQAGGSLRLSCAASGSTFFLYAMGWYRQAPGKERELVASITDGGSTNYADSVKGRFTISRDNAKNTVYLQMNSLKPEDTAVYYCNALARSSRYDYWGQGTQVTVSS” here?
Its value is “low polyreactivity”.

With “QVQLVESGGGLVQAGGSLRLSCAASGSTFFQYAMGWYRQAPGKERELVAAITTSGGRTYYADSVKGRFTISRDNAKNTVYLQMNSLKPEDTAVYYCAGYNYWGQGTQVTVSS” as the sequence, how does the “polyreactivity (PSR sort gate)” value read?
The value was “high polyreactivity”.

For “QVQLVESGGGLVQAGGSLRLSCAASGSTFFRNAKGWYRQAPGKERELVAANSSTGGTTYYAHSVKGRFTISRDNAQNTVYLQMNSLKPEETAVYYCAAAGYIENDGYVQKFEYWGQGTQVTVSS”, which “polyreactivity (PSR sort gate)” value is on record?
Its value is “low polyreactivity”.

For “QVQLVESGGGLVQAGGSLRLSCAASGSTFFRYAMGLYRQAPGKERELVAAISWSGGTTYYADSVKGRFTISRDNAQNTVYLQMYSLKPEDTAVYYCNAVRQGHILDYWGQGTQVTVSS”, which “polyreactivity (PSR sort gate)” value is on record?
Its value is “low polyreactivity”.

With “QVQLVESGGGLVQAGGSLRLSCAASGSTFFRYAMGWYRQAPGKEREFVAAISKRGGSTHYADSVQGRFTLSRDNAKNTVYLQMNSLKPEHTAVYYCAASSFTSSYNYWGQGTQVTVSS” as the sequence, how does the “polyreactivity (PSR sort gate)” value read?
Its value is “high polyreactivity”.

Which “polyreactivity (PSR sort gate)” value does the source give for “QVQLVESGGGLVQAGGSLRLSCAASGSTFFRYSMGWYRQAPGKEREFVAAISKRGGSTHYADSVKGRFTITRDNAKNTVYLQMNSLKPEDTAVYYCAASSFNSSYNYWGQGTQVTVSS” here?
The value was “high polyreactivity”.

Which “polyreactivity (PSR sort gate)” value does the source give for “QVQLVESGGGLVQAGGSLRLSCAASGSTFFSNTMGWYRQAPGKERELVAAITDSGTSTYYADSVKGRFTISRDNAKNTVYLQMNSLKPEDTAVYYCAAYPSGWYDYWGQGTLVTVSS” here?
The value was “low polyreactivity”.

Which “polyreactivity (PSR sort gate)” value does the source give for “QVQLVESGGGLVQAGGSLRLSCAASGSTFFSYAMGWYRQAPGTERELVAAITRSGGSTYYADSVKGRFTISRDNAKNTVYLQMNSLKPEDTAVYYCAPRRYEPKAVYYWGQGTQVTVSS” here?
Its value is “high polyreactivity”.

For “QVQLVESGGGLVQAGGSLRLSCAASGSTFFTYAMGWYRQAPGKERELVASISIGGSTNYADSVKGRFTISRDNAKNTVYLQMNSLKPEDTAVYYCAIRYFTFGVDYDYWGHGTQVTVSS”, which “polyreactivity (PSR sort gate)” value is on record?
The value was “low polyreactivity”.

For “QVQLVESGGGLVQAGGSLRLSCAASGSTFFVNAMGWYRQAPGKERELVAAISYSGGSTYYADSVKGRFTSSRDNAKNTVYLQMNSLKPEDTAVYYCAKDGGPAQDIGMDYCGQGTQVTVSS”, which “polyreactivity (PSR sort gate)” value is on record?
Its value is “low polyreactivity”.

With “QVQLVESGGGLVQAGGSLRLSCAASGSTFFVYTMGWYRQAPGKERELVAAISGSGGSTSYADSVKGRFTISRDNAKNTVYLQMNSLKPEDTAVYYCAARRHVYLRGSTFEFNYWGQGTQVTVSS” as the sequence, how does the “polyreactivity (PSR sort gate)” value read?
The value was “high polyreactivity”.

For “QVQLVESGGGLVQAGGSLRLSCAASGSTFFYNAMGWSRQAPGKERELVAAIRFSGGSTRYADSVKGRFTISRDNAKNTVYLQMNSLKPEDTAVYYCNARGFRESIWYQYDYWGQGTQVTVSS”, which “polyreactivity (PSR sort gate)” value is on record?
Its value is “high polyreactivity”.

With “QVQLVESGGGLVQAGGSLRLSCAASGSTFFYNAMGWYRQAPGKERESTNYADSVKGRFTISRDNAKNTVYLQMNSLKPEDTAVYYSAKDRSYYRKFSSYRLHDYWGHGTQVTVSS” as the sequence, how does the “polyreactivity (PSR sort gate)” value read?
Its value is “low polyreactivity”.

With “QVQLVESGGGLVQAGGSLRLSCAASGSTFFYYTIGWYRQAPGKERELVASITNRGGNTYYADSVKGRFTISRDNAKNTVYLQTNSLKPEDTAVYYCARRYYGYSGRYDYWGQGTQVTVSS” as the sequence, how does the “polyreactivity (PSR sort gate)” value read?
The value was “high polyreactivity”.

For “QVQLVESGGGLVQAGGSLRLSCAASGSTFFYYTMGWYRQAPGKERELVASITNRGGNTYYADSVKGRFTISRDNAKTTVYLQMNSLKPEDTAVYYCARRYYWYSGRYDYWGQGTQVTVSS”, which “polyreactivity (PSR sort gate)” value is on record?
The value was “high polyreactivity”.

For “QVQLVESGGGLVQAGGSLRLSCAASGSTFGAYAMGWYRQAPGKERELVAAISRSGASTYYADSVKGRFTISRDNAKNTVYLQMNSLKPVDTAVYYCAAKIVSRYRVIYDYWGQGTQVTVSS”, which “polyreactivity (PSR sort gate)” value is on record?
The value was “high polyreactivity”.

For “QVQLVESGGGLVQAGGSLRLSCAASGSTFGDYAMGWSRQAPGKERELVAAISRGGSTYYADSVKGRFTISRDNEKNTVYLQMNSLKPEDTAVYYCNKDEGYSASPDGSTFDYWGQGTQVTVSS”, which “polyreactivity (PSR sort gate)” value is on record?
Its value is “low polyreactivity”.

Which “polyreactivity (PSR sort gate)” value does the source give for “QVQLVESGGGLVQAGGSLRLSCAASGSTFGDYAMGWYRQAPGKERELVAAISFSDGSTYYADSVKGRFTISRDNAKNTVYLQMNSLKPEDTAVYYCAKVDYWVYRWYTYDYWGQGTQVTVSS” here?
Its value is “low polyreactivity”.

With “QVQLVESGGGLVQAGGSLRLSCAASGSTFGDYTMGLYRQAPGKERELVAAITLTGGSTYYADSVKGRFTISRDNAKNTVYLQMNSLKPEDTAVYYCAKEWIFDFNYWGQGTQVTVSS” as the sequence, how does the “polyreactivity (PSR sort gate)” value read?
Its value is “low polyreactivity”.

For “QVQLVESGGGLVQAGGSLRLSCAASGSTFGENAMGWYRQAPGKERELVAGINSTGGSTYYADSVKGRFTISRDHAKNNVYLQMNSLNPEDTAVYYCAAGDWYSGNTSHFYYWGQGTQVTVSS”, which “polyreactivity (PSR sort gate)” value is on record?
The value was “low polyreactivity”.

With “QVQLVESGGGLVQAGGSLRLSCAASGSTFGEYAMGWYRQAPGKERELVASITFSAGSTDYADSVKGRFTISRDNAKNTVYLQMNSLKPEDTAVYYCAADGWWPWEYDYWGQGTQVTVSS” as the sequence, how does the “polyreactivity (PSR sort gate)” value read?
The value was “low polyreactivity”.

With “QVQLVESGGGLVQAGGSLRLSCAASGSTFGFNAKGWYRKAPGKERELFAAIDKSGDRHYYADSVKGRFTISRDNAKNSVYLQMNSLKTVDTAVYYCAGDIPFYRYEYWGQGTQVTVSS” as the sequence, how does the “polyreactivity (PSR sort gate)” value read?
The value was “high polyreactivity”.

Which “polyreactivity (PSR sort gate)” value does the source give for “QVQLVESGGGLVQAGGSLRLSCAASGSTFGFNAMGWYRQAPGKERELVAAIDGSAGSTYYADSVKGRFTISRDNAKNTVYLQMNSLKPEDTAVYYCAADIYWFIEYEYWGQGTQVTVSS” here?
Its value is “low polyreactivity”.

With “QVQLVESGGGLVQAGGSLRLSCAASGSTFGFYAMGWYRQAPGKERELVAAISVSGGSTYYADSVKGRFTISRDNAKNTVYLQMNSLNPEDTGVYYCNKVWRPRYYWGLGTQVTVSS” as the sequence, how does the “polyreactivity (PSR sort gate)” value read?
Its value is “high polyreactivity”.

For “QVQLVESGGGLVQAGGSLRLSCAASGSTFGFYTMGWYRPAPGKERELVAAISWSTGRTYYADSVKGRFTISRDNAKNTVYLQMNSLKPEDTAVYYCAARAVDKYRFGGRYDYWGQGTQVTVSS”, which “polyreactivity (PSR sort gate)” value is on record?
Its value is “low polyreactivity”.

With “QVQLVESGGGLVQAGGSLRLSCAASGSTFGGNAMGWYRKAPGKERELVAVISKRGGSTYYADSVKGRFTISRDNAKNTVYLQMNSLKPEDTAVYYCAATYSRYWSPTYDYWGQGTQVTVSS” as the sequence, how does the “polyreactivity (PSR sort gate)” value read?
Its value is “high polyreactivity”.

Which “polyreactivity (PSR sort gate)” value does the source give for “QVQLVESGGGLVQAGGSLRLSCAASGSTFGGNAMGWYRPAPGKERELVAGITTGGTTNYADSVKGRFTISRDNAKNTVYLQMISLIPEDTAVYYCAAGPSSSLTLYDYWGQGTQVTVSS” here?
Its value is “low polyreactivity”.

Which “polyreactivity (PSR sort gate)” value does the source give for “QVQLVESGGGLVQAGGSLRLSCAASGSTFGGNAMGWYRQAPGKERELVAAISSGDSTTYADSVKGRFTISRDNAKNTVYLQMNSLKPEDTAVYYSNRSPKSGQVTYLYSVNAHYDYWGQGTQVTVSS” here?
The value was “low polyreactivity”.
